Assay results: IntAct's records for PubMed 29176668

Molecular target: ATP2A2, P16615-1
Sequence (P16615 whole entry): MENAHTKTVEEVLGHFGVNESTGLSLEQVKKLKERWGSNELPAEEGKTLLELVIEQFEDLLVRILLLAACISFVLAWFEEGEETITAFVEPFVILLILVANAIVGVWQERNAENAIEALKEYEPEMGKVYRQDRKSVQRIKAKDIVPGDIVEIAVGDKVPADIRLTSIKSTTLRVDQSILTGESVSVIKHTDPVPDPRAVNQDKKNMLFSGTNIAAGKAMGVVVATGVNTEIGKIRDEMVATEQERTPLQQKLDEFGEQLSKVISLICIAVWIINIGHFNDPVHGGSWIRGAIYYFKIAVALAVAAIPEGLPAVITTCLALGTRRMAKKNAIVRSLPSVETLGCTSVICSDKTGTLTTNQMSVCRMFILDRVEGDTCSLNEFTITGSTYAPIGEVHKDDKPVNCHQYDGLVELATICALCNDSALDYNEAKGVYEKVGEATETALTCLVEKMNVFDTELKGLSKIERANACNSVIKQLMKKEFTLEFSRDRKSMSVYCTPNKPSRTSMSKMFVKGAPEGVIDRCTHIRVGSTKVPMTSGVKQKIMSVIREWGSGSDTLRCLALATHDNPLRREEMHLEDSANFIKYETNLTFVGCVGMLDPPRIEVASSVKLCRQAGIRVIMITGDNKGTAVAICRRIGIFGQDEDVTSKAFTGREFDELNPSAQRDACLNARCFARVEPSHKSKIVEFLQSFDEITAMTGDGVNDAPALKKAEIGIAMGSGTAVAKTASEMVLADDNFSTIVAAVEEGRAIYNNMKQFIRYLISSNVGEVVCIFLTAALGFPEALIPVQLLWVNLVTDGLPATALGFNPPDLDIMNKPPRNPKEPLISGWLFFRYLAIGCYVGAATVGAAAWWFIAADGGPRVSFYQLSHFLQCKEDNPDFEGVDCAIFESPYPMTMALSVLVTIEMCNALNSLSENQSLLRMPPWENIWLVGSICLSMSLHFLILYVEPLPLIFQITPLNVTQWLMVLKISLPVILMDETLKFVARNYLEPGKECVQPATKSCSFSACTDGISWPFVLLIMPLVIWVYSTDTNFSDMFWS

Row | Substance | effect of a mutation on the interaction
1 | Piezo-type mechanosensitive ion channel component 1 (Mus musculus), E2JF22 E2172A;K2173A;K2174A;Y2175A;P2176A;Q2177A;P2178A;K2179A;G2180A;Q2181A | decreasing interaction strength
2 | Piezo-type mechanosensitive ion channel component 1 (Mus musculus), E2JF22 K2182A;K2183A;K2184A;K2185A | decreasing interaction strength
